Experimental data from paper PMC9308760 (Molecular cell, 2022).

Legend:
[1] = target: the molecule itself; assay: cryo-EM structure
[2] = target: T1, TnsB wild type (Escherichia coli (Tn7), UniProt P13989 1-702); assay: EMSA
T1 sequence: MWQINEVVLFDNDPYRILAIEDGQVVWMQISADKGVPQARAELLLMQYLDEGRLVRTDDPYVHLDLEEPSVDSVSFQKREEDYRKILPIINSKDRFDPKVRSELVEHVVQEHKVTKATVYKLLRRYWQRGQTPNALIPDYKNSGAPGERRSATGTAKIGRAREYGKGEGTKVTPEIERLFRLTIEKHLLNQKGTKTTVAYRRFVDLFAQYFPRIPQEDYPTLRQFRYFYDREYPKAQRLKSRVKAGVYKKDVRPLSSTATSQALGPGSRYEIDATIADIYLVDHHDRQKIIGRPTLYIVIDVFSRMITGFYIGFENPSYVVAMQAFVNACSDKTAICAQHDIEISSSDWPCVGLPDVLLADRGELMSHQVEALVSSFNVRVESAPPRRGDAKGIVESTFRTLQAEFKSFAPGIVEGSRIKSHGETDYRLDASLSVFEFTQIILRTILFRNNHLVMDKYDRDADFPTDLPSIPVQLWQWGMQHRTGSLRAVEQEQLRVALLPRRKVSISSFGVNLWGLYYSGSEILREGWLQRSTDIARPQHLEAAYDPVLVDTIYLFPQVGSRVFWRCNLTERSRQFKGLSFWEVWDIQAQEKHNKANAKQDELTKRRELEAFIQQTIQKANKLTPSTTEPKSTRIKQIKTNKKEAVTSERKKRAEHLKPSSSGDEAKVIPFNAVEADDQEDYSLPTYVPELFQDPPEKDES

[3] = target: the molecule itself; assay: negative-stain EM
[4] = target: T2, TnsB Δ245-251 (Escherichia coli (Tn7), UniProt P13989 1-702, del245-251); assay: EMSA
T2 sequence: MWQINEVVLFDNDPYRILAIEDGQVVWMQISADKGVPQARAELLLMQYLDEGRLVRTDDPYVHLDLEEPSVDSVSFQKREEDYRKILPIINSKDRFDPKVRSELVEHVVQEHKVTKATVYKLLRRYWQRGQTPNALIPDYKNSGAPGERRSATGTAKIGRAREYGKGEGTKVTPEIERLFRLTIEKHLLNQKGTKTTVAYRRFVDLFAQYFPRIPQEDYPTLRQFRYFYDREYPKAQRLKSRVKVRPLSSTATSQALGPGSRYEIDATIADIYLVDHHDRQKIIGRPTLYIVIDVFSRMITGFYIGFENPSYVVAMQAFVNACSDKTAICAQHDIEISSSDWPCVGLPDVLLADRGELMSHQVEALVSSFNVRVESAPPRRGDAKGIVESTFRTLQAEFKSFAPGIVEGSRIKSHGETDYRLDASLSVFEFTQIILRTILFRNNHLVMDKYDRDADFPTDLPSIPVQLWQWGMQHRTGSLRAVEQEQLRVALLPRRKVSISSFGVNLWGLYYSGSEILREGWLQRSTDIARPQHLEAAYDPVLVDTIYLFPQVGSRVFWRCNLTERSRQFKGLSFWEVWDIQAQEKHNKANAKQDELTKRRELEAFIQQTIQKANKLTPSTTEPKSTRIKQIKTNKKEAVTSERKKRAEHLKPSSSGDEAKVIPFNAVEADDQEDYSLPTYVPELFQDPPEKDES

B1: Tn7 transposase TnsB (E. coli), wild type (enzyme, UniProt P13989 1-702, looked up)
chain: MWQINEVVLFDNDPYRILAIEDGQVVWMQISADKGVPQARAELLLMQYLDEGRLVRTDDPYVHLDLEEPSVDSVSFQKREEDYRKILPIINSKDRFDPKVRSELVEHVVQEHKVTKATVYKLLRRYWQRGQTPNALIPDYKNSGAPGERRSATGTAKIGRAREYGKGEGTKVTPEIERLFRLTIEKHLLNQKGTKTTVAYRRFVDLFAQYFPRIPQEDYPTLRQFRYFYDREYPKAQRLKSRVKAGVYKKDVRPLSSTATSQALGPGSRYEIDATIADIYLVDHHDRQKIIGRPTLYIVIDVFSRMITGFYIGFENPSYVVAMQAFVNACSDKTAICAQHDIEISSSDWPCVGLPDVLLADRGELMSHQVEALVSSFNVRVESAPPRRGDAKGIVESTFRTLQAEFKSFAPGIVEGSRIKSHGETDYRLDASLSVFEFTQIILRTILFRNNHLVMDKYDRDADFPTDLPSIPVQLWQWGMQHRTGSLRAVEQEQLRVALLPRRKVSISSFGVNLWGLYYSGSEILREGWLQRSTDIARPQHLEAAYDPVLVDTIYLFPQVGSRVFWRCNLTERSRQFKGLSFWEVWDIQAQEKHNKANAKQDELTKRRELEAFIQQTIQKANKLTPSTTEPKSTRIKQIKTNKKEAVTSERKKRAEHLKPSSSGDEAKVIPFNAVEADDQEDYSLPTYVPELFQDPPEKDES
[1]
  binding result: binds

B2: 2BSL (dsDNA)
DNA 1: CCCAGTTCCCATCTATTTTGTCACTCTTCCCTAAATAATCCTTAAAAACTCCATTTCCACCCCTCCCAGTTCCCAACTATTTTGTCCGCCCACA
DNA 2: TGTGGGCGGACAAAATAGTTGGGAACTGGGAGGGGTGGAAATGGAGTTTTTAAGGATTATTTAGGGAAGAGTGACAAAATAGATGGGAACTGGG
[2]
  Kd: 85 ± 4 nM

B3: TnsB variant with a shorter DBD2-CD linker (Δ245–251) (enzyme, E. coli)
chain: MWQINEVVLFDNDPYRILAIEDGQVVWMQISADKGVPQARAELLLMQYLDEGRLVRTDDPYVHLDLEEPSVDSVSFQKREEDYRKILPIINSKDRFDPKVRSELVEHVVQEHKVTKATVYKLLRRYWQRGQTPNALIPDYKNSGAPGERRSATGTAKIGRAREYGKGEGTKVTPEIERLFRLTIEKHLLNQKGTKTTVAYRRFVDLFAQYFPRIPQEDYPTLRQFRYFYDREYPKAQRLKSRVKVRPLSSTATSQALGPGSRYEIDATIADIYLVDHHDRQKIIGRPTLYIVIDVFSRMITGFYIGFENPSYVVAMQAFVNACSDKTAICAQHDIEISSSDWPCVGLPDVLLADRGELMSHQVEALVSSFNVRVESAPPRRGDAKGIVESTFRTLQAEFKSFAPGIVEGSRIKSHGETDYRLDASLSVFEFTQIILRTILFRNNHLVMDKYDRDADFPTDLPSIPVQLWQWGMQHRTGSLRAVEQEQLRVALLPRRKVSISSFGVNLWGLYYSGSEILREGWLQRSTDIARPQHLEAAYDPVLVDTIYLFPQVGSRVFWRCNLTERSRQFKGLSFWEVWDIQAQEKHNKANAKQDELTKRRELEAFIQQTIQKANKLTPSTTEPKSTRIKQIKTNKKEAVTSERKKRAEHLKPSSSGDEAKVIPFNAVEADDQEDYSLPTYVPELFQDPPEKDES
[3]
  binding result: binds

B4: 3BS (dsDNA)
DNA 1: CTAGTTTAAGACTTTATTGTCATAGTTTAGATCTATTTTGTTCAGTTTAAGACTTTATTGTCCGCCCACA
DNA 2: TGTGGGCGGACAATAAAGTCTTAAACTGAACAAAATAGATCTAAACTATGACAATAAAGTCTTAAACTAG
[4]
  binding result: binds
